# T1: SARS coronavirus non-structural protein 15 (Nsp15), wild-type, His-tagged (SARS coronavirus (SARS-CoV)), P0C6X7
# T1 chain: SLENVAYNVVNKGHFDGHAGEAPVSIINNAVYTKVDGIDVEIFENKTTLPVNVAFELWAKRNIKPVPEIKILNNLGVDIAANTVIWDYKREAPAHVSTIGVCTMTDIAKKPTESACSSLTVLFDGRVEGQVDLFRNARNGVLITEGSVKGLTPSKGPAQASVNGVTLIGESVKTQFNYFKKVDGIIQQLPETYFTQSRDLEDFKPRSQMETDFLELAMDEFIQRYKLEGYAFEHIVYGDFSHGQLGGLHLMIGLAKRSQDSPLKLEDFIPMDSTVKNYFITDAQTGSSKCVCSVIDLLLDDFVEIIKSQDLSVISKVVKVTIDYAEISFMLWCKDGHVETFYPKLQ
# Experiments:
# [1] = biological target: T1, SARS coronavirus non-structural protein …; test: SEC; conditions: remark: other sources report otherwise
# [2] = biological target: T1, SARS coronavirus non-structural protein …; test: AUC; conditions: remark: other sources report otherwise
binder,measurement,setting,value
"SARS coronavirus non-structural protein 15 (Nsp15), wild-type, His-tagged, P0C6X7 (enzyme) SLENVAYNVVNKGHFDGHAGEAPVSIINNAVYTKVDGIDVEIFENKTTLPVNVAFELWAKRNIKPVPEIKILNNLGVDIAANTVIWDYKREAPAHVSTIGVCTMTDIAKKPTESACSSLTVLFDGRVEGQVDLFRNARNGVLITEGSVKGLTPSKGPAQASVNGVTLIGESVKTQFNYFKKVDGIIQQLPETYFTQSRDLEDFKPRSQMETDFLELAMDEFIQRYKLEGYAFEHIVYGDFSHGQLGGLHLMIGLAKRSQDSPLKLEDFIPMDSTVKNYFITDAQTGSSKCVCSVIDLLLDDFVEIIKSQDLSVISKVVKVTIDYAEISFMLWCKDGHVETFYPKLQ",percent of total protein hexameric,[1],90%
same,stoichiometry N,[1],6
same,stoichiometry N,[2],6

# From PMC7094243
